Kd data for 1 molecule are collected here from patent US20240175877A1.

For this assay, the target named is Ara h 2 (peanut) (UniProt Q6PSU2). As to the kind of experiment: SPR, Biacore 3000.
Ara h 2 (peanut), sequence (Q6PSU2 23-172): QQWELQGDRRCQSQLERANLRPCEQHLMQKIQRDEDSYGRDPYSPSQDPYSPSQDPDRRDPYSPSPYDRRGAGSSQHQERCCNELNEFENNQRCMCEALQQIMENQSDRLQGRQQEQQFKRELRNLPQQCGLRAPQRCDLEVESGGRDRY

B1: 13BU2T1 (antibody, IgG1, V domains shown)
VH: VESGGGVVQPGASLRLSCVASGFTFRDYSMHWVRQAPGKGLEWMSFIRFDGTTKDYRESVKGRFIISRDDSKNTLYLQMTSLRPEDTARYYCVKDNGWRAFDHWGQGALVIVSS
VL: EIVMTQSPLSLPVTPGEAASISCRSSQSLLHRNGYIYLDWYLQRPGQSPQLLISFVSKRASGAPDRFSGSGSGTDFTLTISRVEAEDFGVYFCMQSLENPWTFGP
In the case of B1, the Kd (usually a measure of binding affinity in units of concentration) was found to be 4.85 nM.
